# Measurements as given in patent US20180073039A1 (SINAI HEALTH SYSTEM, published 2018).
# T1: HA-PALB2 (1-103)
# T1 sequence: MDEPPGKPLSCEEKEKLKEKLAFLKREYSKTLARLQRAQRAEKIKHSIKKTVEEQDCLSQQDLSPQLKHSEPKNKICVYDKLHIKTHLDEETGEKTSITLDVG
# B1: PALB2 (partner and localizer of BRCA2) (other)
# chain: MDEPPGKPLSCEEKEKLKEKLAFLKREYSKTLARLQRAQRAEKIKHSIKKTVEEQDCLSQQDLSPQLKHSEPKNKICVYDKLHIKTHLDEETGEKTSITLDVGPESFNPGDGPGGLPIQRTDDTQEHFPHRVSDPSGEQKQKLPSRRKKQQKRTFISQERDCVFGTDSLRLSGKRLKEQEEISSKNPARSPVTEIRTHLLSLKSELPDSPEPVTEINEDSVLIPPTAQPEKGVDTFLRRPNFTRATTVPLQTLSDSGSSQHLEHIPPKGSSELTTHDLKNIRFTSPVSLEAQGKKMTVSTDNLLVNKAISKSGQLPTSSNLEANISCSLNELTYNNLPANENQNLKEQNQTEKSLKSPSDTLDGRNENLQESEILSQPKSLSLEATSPLSAEKHSCTVPEGLLFPAEYYVRTTRSMSNCQRKVAVEAVIQSHLDVKKKGFKNKNKDASKNLNLSNEETDQSEIRMSGTCTGQPSSRTSQKLLSLTKVSSPAGPTEDNDLSRKAVAQAPGRRYTGKRKSACTPASDHCEPLLPTSSLSIVNRSKEEVTSHKYQHEKLFIQVKGKKSRHQKEDSLSWSNSAYLSLDDDAFTAPFHRDGMLSLKQLLSFLSITDFQLPDEDFGPLKLEKVKSCSEKPVEPFESKMFGERHLKEGSCIFPEELSPKRMDTEMEDLEEDLIVLPGKSHPKRPNSQSQHTKTGLSSSILLYTPLNTVAPDDNDRPTTDMCSPAFPILGTTPAFGPQGSYEKASTEVAGRTCCTPQLAHLKDSVCLASDTKQFDSSGSPAKPHTTLQVSGRQGQPTCDCDSVPPGTPPPIESFTFKENQLCRNTCQELHKHSVEQTETAELPASDSINPGNLQLVSELKNPSGSCSVDVSAMFWERAGCKEPCIITACEDVVSLWKALDAWQWEKLYTWHFAEVPVLQIVPVPDVYNLVCVALGNLEIREIRALFCSSDDESEKQVLLKSGNIKAVLGLTKRRLVSSSGTLSDQQVEVMTFAEDGGGKENQFLMPPEETILTFAEVQGMQEALLGTTIMNNIVIWNLKTGQLLKKMHIDDSYQASVCHKAYSEMGLLFIVLSHPCAKESESLRSPVFQLIVINPKTTLSVGVMLYCLPPGQAGRFLEGDVKDHCAAAILTSGTIAIWDLLLGQCTALLPPVSDQHWSFVKWSGTDSHLLAGQKDGNIFVYHYS
# notes: Endogenous protein in extracts of human 293T cells, immunoprecipitated with rabbit anti-PALB2 or detected by immunoblot; NCBI NP_078951.2
# Columns and labels:
# [1] = tested on: T1, HA-PALB2 (1-103)
# [2] = tested on: ubiquitylated HA-PALB2 (1-103) (in vitro ubiquitylated by CRL3-KEAP1)
# [3] = target: T2, BRCA2 (Homo sapiens breast cancer 2) (human, UniProt P51587 1-3418); experiment: PALB2 immunoprecipitation from 293T extracts synchronized in S or G1, immunoblot
# T2 construct: Endogenous protein in 293T extracts, detected by immunoblot
molecule,measurement,setting,value
recombinant CRL3-KEAP1 (neddylated CUL3/RBX1 with GST-mKEAP1),"in vitro ubiquylation of HA-PALB2 (1-103), immunoblot and mass spectrometry",[1],ubiquitylation of the N-terminus of PALB2 (residues 1-103; fused to a haemagglutinin (HA) epitope tag) could be readily reconstituted by recombinant CRL3-KEAP1
glutathione S-transferase (GST)-USP11 (Sus scrofa (pig) USP11),"deubiquitylation reaction, immunoblot",[2],recombinant USP11 can directly de-ubiquitylate PALB2 (1-103)
B1,binding result,[3],binds
